Target: T1, cTnI quality control product recombinant protein (human, UniProt P19429 1-210, limits assumed)
T1 construct: the assay paragraphs only say cTnI; also called cardiac troponin I; cTnI antigen
Experiment: AMC biosensor, antibody on sensor
Protocol: Operating process: it is equilibrated in Buffer 1 (PBST) for 60 s, the antibody is immobilized in an antibody solution for 300 s, incubated in Buffer 2 (PBST) for 180 s, bound in antigen solution for 420 s, dissociated in the Buffer 2 for 1200 s, 10 mM of GLY solution with pH 1.69 and Buffer 3 are used for sensor regeneration, and data is output.

T1 sequence (P19429 whole entry): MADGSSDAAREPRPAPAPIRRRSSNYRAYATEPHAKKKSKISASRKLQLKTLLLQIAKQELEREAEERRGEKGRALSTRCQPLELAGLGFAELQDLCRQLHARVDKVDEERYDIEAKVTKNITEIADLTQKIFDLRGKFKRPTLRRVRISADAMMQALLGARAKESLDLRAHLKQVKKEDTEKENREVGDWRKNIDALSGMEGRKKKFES

Row | Kd [nM] | koff [s⁻¹] | kon [M⁻¹ s⁻¹] | Binder
1 | 31.8 | 0.000922 | 29000 | WT 1-4 (antibody, V domains shown) VH: QVQLQQSGTELAKPGASVKFSCKASDYTFSTYWMYWIKQRPGQGLEWIGYINPSSGHTEYNQRFKDKATLTADKSSSTAYMQLNSLTSEDSAVYYCARKYYGPFAMDYWGQGTSVTVSS VL: EIFLTQSPAIMSASPGEKVTMTCSASTTVSYAHWYQQKSGTSPKRWLYDSSKIASGIPVRFSGSGSGTSYSLTISSMEAEDAATYYCQNWSTNPYTFGGGTKLEIKR
2 | 1.7 | 6.15e-05 | 36200 | Mutation 1-25 (antibody, V domains shown) VH: QVQLQQSGTELAKPGASVKFSCKASGYTFSSYWMYWIKQRPGQGLEWIGYINPSSGHTDYNQRFKDKATLTADKSSSTAYMQLNSLTSEDSAVYYCARRYYGPFGMDYWGQGTSVTVSS VL: EIFLTQSPAIMSASPGEKVTMTCSASTSVSYVHWYQQKSGTSPKRWIYDTSKIASGIPVRFSGSGSGTSYSLTISSMEAEDAATYYCQQWSSNPYTFGGGTKLEIKR
3 | 2.3 | 8.41e-05 | 36500 | Mutation 1-18 (antibody, V domains shown) VH: QVQLQQSGTELAKPGASVKFSCKASGYTFTTYWMYWIKQRPGQGLEWIGYINPSSGHTDYNQRFKDKATLTADKSSSTAYMQLNSLTSEDSAVYYCARRYFGPFGMDYWGQGTSVTVSS VL: EIFLTQSPAIMSASPGEKVTMTCSASTTVSYVHWYQQKSGTSPKRWLYDTSKLASGIPVRFSGSGSGTSYSLTISSMEAEDAATYYCQQWSSQPYTFGGGTKLEIKR
4 | 7.73 | 0.000118 | 15300 | Mutation 1-1 (antibody, V domains shown) VH: QVQLQQSGTELAKPGASVKFSCKASGYTFSTYWMYWIKQRPGQGLEWIGYINPSTGHTDYNQKFKDKATLTADKSSSTAYMQLNSLTSEDSAVYYCARRYYGPFGMDYWGQGTSVTVSS VL: EIFLTQSPAIMSASPGEKVTMTCSASSSVSYVHWYQQKSGTSPKRWIYDTSKIASGIPVRFSGSGSGTSYSLTISSMEAEDAATYYCQQWSTNPYTFGGGTKLEIKR
5 | 9.29 | 0.000173 | 18600 | Mutation 1-24 (antibody, V domains shown) VH: QVQLQQSGTELAKPGASVKFSCKASGYTFSTYWMYWIKQRPGQGLEWIGYINPSTGHTDYNQKFKDKATLTADKSSSTAYMQLNSLTSEDSAVYYCARRYFGPFGMDYWGQGTSVTVSS VL: EIFLTQSPAIMSASPGEKVTMTCSASSTVSYVHWYQQKSGTSPKRWLYDTSKIASGIPVRFSGSGSGTSYSLTISSMEAEDAATYYCQQWSSNPYTFGGGTKLEIKR
6 | 1.39 | 6.64e-05 | 47700 | Mutation 1-16 (antibody, V domains shown) VH: QVQLQQSGTELAKPGASVKFSCKASGYTFSTYWMYWIKQRPGQGLEWIGYINPSSGHTDYNQKFKDKATLTADKSSSTAYMQLNSLTSEDSAVYYCARKYYGPFGMDYWGQGTSVTVSS VL: EIFLTQSPAIMSASPGEKVTMTCSASTTVSYVHWYQQKSGTSPKRWLYDTSKIASGIPVRFSGSGSGTSYSLTISSMEAEDAATYYCQQWSTQPYTFGGGTKLEIKR
7 | 0.813 | 2.45e-05 | 30100 | Mutation 1-9 (antibody, V domains shown) VH: QVQLQQSGTELAKPGASVKFSCKASGYTFSSYWMYWIKQRPGQGLEWIGYINPSSGHTDYNQRFKDKATLTADKSSSTAYMQLNSLTSEDSAVYYCARKYFGPFGMDYWGQGTSVTVSS VL: EIFLTQSPAIMSASPGEKVTMTCSASSSVSYVHWYQQKSGTSPKRWIYDTSKIASGIPVRFSGSGSGTSYSLTISSMEAEDAATYYCQQWSTQPYTFGGGTKLEIKR
8 | 1.73 | 8.25e-05 | 47800 | Mutation 1-22 (antibody, V domains shown) VH: QVQLQQSGTELAKPGASVKFSCKASGYTFTTYWMYWIKQRPGQGLEWIGYLNPSSGHTDYNQKFKDKATLTADKSSSTAYMQLNSLTSEDSAVYYCARKYYGPFGMDYWGQGTSVTVSS VL: EIFLTQSPAIMSASPGEKVTMTCSASTTVSYVHWYQQKSGTSPKRWLYDTSKLASGIPVRFSGSGSGTSYSLTISSMEAEDAATYYCQQWSSQPYTFGGGTKLEIKR
9 | 0.548 | 1.78e-05 | 32400 | Mutation 1-32 (antibody, V domains shown) VH: QVQLQQSGTELAKPGASVKFSCKASGYTFSTYWMYWIKQRPGQGLEWIGYLNPSSGHTDYNQRFKDKATLTADKSSSTAYMQLNSLTSEDSAVYYCARKYWGPFGMDYWGQGTSVTVSS VL: EIFLTQSPAIMSASPGEKVTMTCSASSTVSYVHWYQQKSGTSPKRWLYDTSKIASGIPVRFSGSGSGTSYSLTISSMEAEDAATYYCQQWSSNPYTFGGGTKLEIKR
10 | 5.72 | 0.000211 | 36900 | Mutation 1-4 (antibody, V domains shown) VH: QVQLQQSGTELAKPGASVKFSCKASGYTFSTYWMYWIKQRPGQGLEWIGYINPSSGHTDYNQRFKDKATLTADKSSSTAYMQLNSLTSEDSAVYYCARKYYGPFGMDYWGQGTSVTVSS VL: EIFLTQSPAIMSASPGEKVTMTCSASTTVSYVHWYQQKSGTSPKRWLYDTSKIASGIPVRFSGSGSGTSYSLTISSMEAEDAATYYCQQWSTNPYTFGGGTKLEIKR
11 | 3.29 | 6.88e-05 | 20900 | Mutation 1-12 (antibody, V domains shown) VH: QVQLQQSGTELAKPGASVKFSCKASGYTFSTYWMYWIKQRPGQGLEWIGYLNPSTGHTDYNQRFKDKATLTADKSSSTAYMQLNSLTSEDSAVYYCARRYFGPFGMDYWGQGTSVTVSS VL: EIFLTQSPAIMSASPGEKVTMTCSASTTVSYVHWYQQKSGTSPKRWLYDTSKIASGIPVRFSGSGSGTSYSLTISSMEAEDAATYYCQQWSTQPYTFGGGTKLEIKR
12 | 4.19 | 0.000155 | 37000 | Mutation 1-10 (antibody, V domains shown) VH: QVQLQQSGTELAKPGASVKFSCKASGYTFTSYWMYWIKQRPGQGLEWIGYINPSTGHTDYNQRFKDKATLTADKSSSTAYMQLNSLTSEDSAVYYCARKYYGPFGMDYWGQGTSVTVSS VL: EIFLTQSPAIMSASPGEKVTMTCSASSTVSYVHWYQQKSGTSPKRWLYDTSKLASGIPVRFSGSGSGTSYSLTISSMEAEDAATYYCQQWSTQPYTFGGGTKLEIKR
13 | 9.35 | 0.000105 | 11200 | Mutation 1-8 (antibody, V domains shown) VH: QVQLQQSGTELAKPGASVKFSCKASGYTFSTYWMYWIKQRPGQGLEWIGYINPSTGHTDYNQKFKDKATLTADKSSSTAYMQLNSLTSEDSAVYYCARRYWGPFGMDYWGQGTSVTVSS VL: EIFLTQSPAIMSASPGEKVTMTCSASTTVSYVHWYQQKSGTSPKRWLYDTSKIASGIPVRFSGSGSGTSYSLTISSMEAEDAATYYCQQWSTQPYTFGGGTKLEIKR
14 | 0.941 | 1.39e-05 | 14800 | Mutation 1-28 (antibody, V domains shown) VH: QVQLQQSGTELAKPGASVKFSCKASGYTFSTYWMYWIKQRPGQGLEWIGYLNPSTGHTDYNQRFKDKATLTADKSSSTAYMQLNSLTSEDSAVYYCARKYYGPFGMDYWGQGTSVTVSS VL: EIFLTQSPAIMSASPGEKVTMTCSASTTVSYVHWYQQKSGTSPKRWLYDTSKIASGIPVRFSGSGSGTSYSLTISSMEAEDAATYYCQQWSSNPYTFGGGTKLEIKR

Reference: patent US20220033483A1 (GUAGNDONG FEIPENG BIOLOGICAL, published 2022)
